Measured values taken from the domain aggregation screens of Martell et al. (2025).

Assay: soluble fraction after stress (log2 fold change); higher = more stays soluble; pooled small domains, quantitative proteomics
Details: stress: 75 degC
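Also: 20 min heating vs room temperature control held 20 min.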

| Sequence | soluble fraction (log2) |
| --- | --- |
| HMGYVQLTAREKEVLQGLVDGASYKMIAAKLDIRFGTVHTHVKNIYEKLHVNSASEAVVKAIRQRL | -2.26 |
| HMPKLTKEEIQFIDNYLKNSGVEYIDTRAEVVDHVASEIESRLSANNTTNFYEEFKVYMVQHKETLLK | -0.21 |
| HMHDIPDITDLRPLRHTLGLTLAHAAQQLNTTTATISRLERGQHRNDHLATTYRTWLHTHPT | -0.291 |
| HMKRTRLEEAMDWLREQLNDGPVAYATLKDEAPKAEITLSTLRAAGEALRVDKQKKGVQWGGWTWSLPR | 0.00234 |
| HMSELSEVIEKTFEELPEELKLIVKLREIDDLSYDEISNKIGIPIGTVRSRLHRAREILINIIKN | -2.5 |
| HMPLPFSPVMFVGTKSGAQTDLDGNYKIETYYSSDSLKVVVLGYAPLAKKVKQGTTSVVNFELSAAS | 0.161 |
| HMKIEEIAYSTFISMLDKGEVSKVELKDNLIYIETKADDKTIYTTGRMEDPDLTNRLIEAGVDFTEIE | -0.196 |
| HMQYYITKIANYDQVSPNLLVRTAEGQYMVKTNADILDTDVTKLTEEEIRKDWGYLFENGFSELV | -0.498 |
| HMNSKIIVESIIKSKNGIAKVADLVEGGVSRQSIKKMYADGYIKRISRGYYTLTSEPVSSDEQVISS | -0.645 |
| HMSEHKFIVPEEFNLKRLDQTVAAQFEKISRTKISKIIKSSLLKVNDKVVTDQSIKIKQDDVITFTEIKDQ | -0.421 |
| HMLPDLQKAIDTFLYEVDSRINTSFEELIDKLNSKEEAVAFFLALLEAVRWGFIKAEQESNSINIKK | -0.898 |
| HMTFFDDLLYQAKAAVDNDPSIKPSLHNRAIIEILYQQGVFNMKNAVEHVAELLEISKNTVYLHLRSVKG | -1.06 |
| HMEHIEVDTSHIAVGSKVKHKAFGLGEITDKGNTYVFVKFDGQAIPKKFQFPGAFTQGFLTK | 0.236 |
| HMGSVDMVYGDHKINSEHMDLSFKNQTAVLYDKVNYKSSLSMLSADKILVNFLNKYTKIEMNDENNNILIQ | 0.176 |
| HMDTLESYVKRLEKLEGIADSFKGVSKAFALQAGREIRIMVESEKITDEEAVWLSKDIARRIENELEYPG | -0.331 |
| HMQDLAKRWVEEFGDLLYKYTLPRVSDSGIAKDLVQETFLAAWRNIDNFKGEASEKNWLFTILKNKIIDH | -0.382 |
| HMSQVSTKYINVSSAYVRSKPSKDGEIVTSLIKNTDVTVTGENGDWYKIKFNNYEGYIFKELLSDSKLEE | -0.442 |
| HMRLTTTPKTARGLTTMNRIIRAAEVEFGRKGYHYTGITDIAQRAKVASGTIYLYFTDKYSLYVHLLT | 0.159 |
| HMNDNFTPDDLNRLARIKDLPQAKKYALELISNKSAKPMKPEKVRWFANQLQKKKSVMDITKMMYDLLLA | -0.423 |
| HMKNYYELLGVAREASQDQIKKAYRKLARKYHPDVSKEADAETRMQELNVAYDTLSDAEKKREYDFQLDHP | 0.0883 |
| HMVDPAFLAWQQKPENTWFGTDRRKTALAIAIAEEIRNDPANSNLVGAAFYARVAEETEETLN | -0.546 |
| HMNEKGTNSTINEITRISKPGRRVYVGSAEIPKVKSGRGLVLISTSKGVMTGAEAAKAKLGGELLLKV | -0.000493 |
| HMDSTDSIIHYVRAHRSLEVKNLSFAEARFKKVVELEPNFARGWLGLGEVSILKNNFENASIYLDKALE | -0.282 |
| HMDLLVWRVADEDAGERIDKLVVDSLDDVSRTAVQQWIKDGLVTVNGKTVKPNYKAAAGDEVAVSVPEPE | 0.239 |
| HMASLSITVNGETRRAAPGSIADLVRAIGLDPAKVAVERNGEIAPRSTLADVALADGDVLEIVHFVG | -0.359 |
| HMETPQIVARGDLITMVFRSGSLVLTAKGKALENGAMGDTIRVVNSDSNKTLAARVSASREVTVSE | -0.549 |

| Sequence | soluble fraction (log2) |
| --- | --- |
| HMKIGIYPGTFDPITHGHTDIIRRSLRVFDKVVVAVAPNPSKHPLFTLTERLEMIRIVMKELEHVEVT | 0.159 |
| HMLTDAAAVKRSVRNLVQYGFYEKPFHPEIGSGVRDLLFENMTPFVANNLSKQIEEIITNYEPRA | -0.314 |
| HMHYALTVDFPAALEARIDPAHRAALRGVLAHDPRPSYQSDPERLYGVAFAGKNVKFTVEDGVLTVRKIEE | -0.151 |
| HMKAETILAIPENQPERLFPNNEDEARKIYRDLAREWHTDRNKSPKAQDVFSHLSKLYDIVIDRIKNKTWT | 0.194 |
| HMNSEELFLRRIAQELIDQHGKDLHRIIVVLPSNRSKVFLKKFLFEILGSAFLTPQLMLLPQFVKSIV | -0.425 |
| HMAVIILDEPTLGLDPAVRISLWQAIQSARDSTMSAFLITTHYIKEVADYLSAVKILDHGREVASGNPSAL | -0.313 |
| HMEFTKSPLDEIAGVGPARKRALLAAFGTAKAVSQAALADLEKTPGVNAATARLVYAHFHEK | -0.227 |
| HMLNQIGVSQKEFDQIHTAIKIALKTSSLTPTGITEKLPKFPPEKTADILRWMADNKEVLLNSEEKYELKT | -0.297 |
| HMDLTPEEQMDLYRLLDSLPTEERTYLILHYFEERSFPEMAEILSMPEAKLKSRFYRILHRLRAHL | -2.74 |
| HMYIEKTAYINDTAVNVRKSATTDSDVIKVLALNTEITIIGEENDWYKVKSGNDIGYIAKRLVSDQKKE | -0.187 |
| HMAAGVESLTEKEFAVASLVGGGASNREIAERLAMSERTVKSHLSSIFRKMDVRDRVQLALAMND | -0.0767 |
| HMRSAKEYKAIREEIYRFIGAYITKHVYAPSNKEIAEAVGISGTTVHRHLIDMIDEGILETD | -2.65 |
| HMRAGALTTLTERERNVFDLVVTGHSNPEIARQLSIADVTVKTHVGHILSKLGVRDRVHLVIWAHRQGLAD | -2.84 |
| HMYTTHTQSELNEAARFNGRATYQKGIYYNESKKEHFKVVNGKYQALPNVKQVNGDSWIDKTGITHKG | -0.324 |
| HMGRGAAKGPLKELGLDPVTGRPLVVKDGKFGMYVTDGETNAGLRRGDLVEQLTLDRGMELLAERRARADQ | 0.201 |
| HMGTHDAGTRFFDNLDSLLQNRDATRADVLAVYLLAVSLGFRGKHRSVSSAPQIAHYRNQAYVTLFQ | 0.737 |
| HMEGVTVPDVTRISLDEAEELLTSYGLRFEVADRRANSAFPGNYVIDQAPSAEVIVKPNRKIYLTVNAA | -0.238 |
| HMNSTNYQVIITANGGLNIRAGASTAYARIGGYAKGTVVTILAESNGFGKTDKGWISLNYTSKDLD | -3.11 |
| HMISKYLRIESDILSAIREGRLKPGDKLPGQSEMRRIYNVSAITVRKAFTDLINDGYLVGVRGSGTYVAKR | -0.91 |
| HMAYRLDVRNQTKGTYLVIQKKYWDKEKKQSRTKHHMSLGYVHDLQKLYSDPITHYKEVINQMNAEEKG | -2.09 |
| HMPLQKNRPKIKPQKVVFLFSVEWMWSPAHNRIDSYFINIKPSRYYLWNSFFDRHSFSDYWDFIGYTEN | 0.1 |
| HMEEPFRIEKKGDIYYISGKTVERLVAMTDLDNDSAVKRLQRTLKRMGVEDALREHGINPGDTVVIGNYEF | -0.201 |
| HMIDELLDPTHRIMVRHPRVDYVSPGFLIGPDKDVILWGFTGGIIARLFDFLGWTRPWDQSHVQDLPPYML | -0.245 |
| HMEQVLNVAVRRGELIMSSAAEQTVRIYSSAGSMVWQGKVSASDVTVELPSGVYVVNGKKVV | -1.25 |
| HMSDESALIAAIEKAIAAQPETAEKVRNGHLPAAGALIGSVMKETKGQADAARVRELLLGLLGQ | 0.441 |
| HMVDIEQAEFLSRQFDLLLARLDDPTIEWQDIADIRSEYTGENEHRDTIRKGSKLFYEYLQAGWIKN | -0.678 |

| Sequence | soluble fraction (log2) |
| --- | --- |
| HMSDPEAFIRQTVAAAEPEGIALSVLGKRVRGKFRTFKLRDLGYAQFRPYLGDLDGIKVEQRDGQSYARLD | -1.03 |
| HMEQLIIQEELSGKRLDQLVSLLFPSLTRAHAQKLIKEGAVLVNEKPRKPAYAVMTGELLTVELPEPE | -0.167 |
| HMRADYVGGLDPAGDNFLALRTGPGSGYAMILPMGPGTFVTVLRRNGKWLLVELEDGTRGWAYGSYILG | -2.32 |
| HMQISGIHLYERRITKDDEWAERKLSEISLAGSLVILILRNEHVVIPNGETVLKENDLLYISD | -3.66 |
| HMSLTEESAKSLIGLTENEAVKVAAERGWTVRVAMRDGEAFMLTQDYSENRVNLTVMKTLVTAVTI | -3.32 |
| HMISAQEQALRNLKLSNGMTWKALAKALGITERSILSYVAAPGTKGYREMPAEVWHKLENISGH | -0.0432 |
| HMTYADTRDLLIRRGMELLTEQGIAATSIERVLQSTGIPKGSFYHYFATKHDFTLAVMDAYHHY | -0.157 |
| HMETYEFNITDKEQTGMRVDKLLPELNSDWSRNQIQDWIKAGLVVANDKVVKSNYKVKLNDHIVVTEKEV | 0.0567 |
| HMTDKLIAYSVDGILNVITSEAQSVKVYAIDGRLVRILQLGEGRNEVSGLAKGIYIVDNRKVAV | -2.71 |
| HMPDTETLTPRQRQILDLVQELGFTTIETLAERFGVSAQTVRREIIRLQAGNFLQRFHGGAGLASGGIRSA | -1.24 |
| HMGAKLTTAQGGTLKVLVKGKKTHTPTIELRDKDPDFPNAKVVQPDINKGNKQIAHGINGVL | 0.686 |
| HMSTTGIVKWFNEEKGFGFITQDQGGADVFVHYRAIASEGFKTLAEGQKVSFEVEQGQKGLQAANVQA | 0.333 |
| HMQDLTAQQQAILSFLKEHPKATRKEISENIPNITEDNIRYNLSQLQELGFVKSMGDSFIRIAI | 0.534 |
| HMREYEKAVDYVRRMISSGSLNVGDRLPTERELSLELDISRNSTREAMRMLENMGIIVSRHGSGNYISGN | -0.682 |
| HMEIYIDGNKYVGELRNGKPNGRGTITYTGDGSKYVGEWKNGKRYGRGKMAYTNGTTKEGVWKDDEFLYAT | 0.181 |
| HMGSNATIKYAIKGDESLVQVAQKFNVTVSELRSWNNISAFENAKTGQELVINVPASKYETYFALANT | 0.403 |
| HMAQLVVTVDKLNKRTAIPVTLSDKSSNDSVVEKGFRFEGFPFVNTATNGKKWYKDREGFFYWAGGLMEEA | 0.0903 |
| HMNQRQLQIKQMLDVAQEVFLKQLKTVFPDVSEMTIRRDLILLEDMGYAVRTHGGAVSINRF | -2.42 |
| HMEETLRALAKKISEKVLKSGRSTTLEPMNPYERRIIHSAVSEIEGVSSKSVGEEPYRKVVISSDNP | 0.0756 |
| HMKGTVKFFNESKGFGFITEEGTNKEHFVHVSGLVDEIRENDEVEFDLQDGRKGLNAVNVRV | 0.363 |
| HMELSTQERIQILLEILNQREIISFSQTLRKKEGKKGVVVTFLASLELAKDGYVTLVQNKSDQIYLRSN | -0.803 |
| HMEVSYSLPRFHKGKNPYVDFYQVDPRTLRMRRKKFLLRGVRDAVLLEQRAADLVALLTERLHSGWNAWDD | -2.1 |
| HMKREELTQQTKQNLREAFWSLYIQKPIEKITVKEITDIAGYNRGTFYLYYKDTYDLLAKIE | -0.279 |
| HMGAATQADIARVQELLNRLGYDAGSPDGLMGPRTRDAILEYQLTEGLETTGTVTRETLASLEARL | 0.0156 |
| HMLPAGAAAPLEDGSAPEGYTVKGNADSGLYHEPDGRWYDATVAEFWFKTAADAEAAGFRKAGS | 0.149 |
